The values that follow come from PMC12090190 (ACS Chemical Biology, 2025).

Series [1] concerns the target T1, WT hOTC (human ornithine transcarbamylase) (Homo sapiens, UniProt P00480).
T1 sequence (P00480 33-354): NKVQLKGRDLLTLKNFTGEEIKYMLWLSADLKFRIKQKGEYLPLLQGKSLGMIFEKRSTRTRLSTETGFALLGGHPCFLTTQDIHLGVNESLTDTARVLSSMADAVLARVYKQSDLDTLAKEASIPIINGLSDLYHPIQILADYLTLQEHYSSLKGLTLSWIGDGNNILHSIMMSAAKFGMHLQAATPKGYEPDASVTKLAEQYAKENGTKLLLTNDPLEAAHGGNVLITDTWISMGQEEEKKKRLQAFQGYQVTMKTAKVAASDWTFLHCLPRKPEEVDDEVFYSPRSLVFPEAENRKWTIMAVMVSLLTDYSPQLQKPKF
The experiment in a line: differential scanning fluorimetry. Type of series: binding. The following applies: 4 μM enzyme; 10 mM sodium phosphate. In general terms: In DSF a fluorescence change marks the thermal transition of the protein.

Substrate in series [2]: NC(=O)OP(=O)(O)O
Kind of series: discontinuous colorimetric citrulline assay, steady-state kinetics. It counts as biochemical, Homo sapiens. To be noted: co-substrate ornithine.

As for `O=P(O)(O)O` [phosphate], in series [1], the dTm entry is “The addition of phosphate generally increased the melting temperature of these variants”.

B1: WT hOTC (human ornithine transcarbamylase) (Homo sapiens) (protein)
chain: NKVQLKGRDLLTLKNFTGEEIKYMLWLSADLKFRIKQKGEYLPLLQGKSLGMIFEKRSTRTRLSTETGFALLGGHPCFLTTQDIHLGVNESLTDTARVLSSMADAVLARVYKQSDLDTLAKEASIPIINGLSDLYHPIQILADYLTLQEHYSSLKGLTLSWIGDGNNILHSIMMSAAKFGMHLQAATPKGYEPDASVTKLAEQYAKENGTKLLLTNDPLEAAHGGNVLITDTWISMGQEEEKKKRLQAFQGYQVTMKTAKVAASDWTFLHCLPRKPEEVDDEVFYSPRSLVFPEAENRKWTIMAVMVSLLTDYSPQLQKPKF
Usually Km stands for the concentration of substrate that gives half-maximal velocity. A word on the kcat: it is the maximal rate divided by the concentration of active sites. One may read the kcat/Km as the turnover number divided by the Michaelis constant. Take B1: in series [2], the Km came out at 240 ± 70 µM, the kcat turned out to be 56 ± 9.8 s⁻¹ and the catalytic efficiency (kcat/Km) was found to be 240000 ± 29000 M⁻¹ s⁻¹.
